Measured values from patent publication US20240360233A1 (University of Texas, published 2024).
One block for each binder: values may come before it.

Experiments:
[1] = molecular target: T1, TSLPR on TSLPR-expressing REH cells (UniProt Q9HC73 23-371); experiment: cell-based or functional assay
T1 sequence (looked up): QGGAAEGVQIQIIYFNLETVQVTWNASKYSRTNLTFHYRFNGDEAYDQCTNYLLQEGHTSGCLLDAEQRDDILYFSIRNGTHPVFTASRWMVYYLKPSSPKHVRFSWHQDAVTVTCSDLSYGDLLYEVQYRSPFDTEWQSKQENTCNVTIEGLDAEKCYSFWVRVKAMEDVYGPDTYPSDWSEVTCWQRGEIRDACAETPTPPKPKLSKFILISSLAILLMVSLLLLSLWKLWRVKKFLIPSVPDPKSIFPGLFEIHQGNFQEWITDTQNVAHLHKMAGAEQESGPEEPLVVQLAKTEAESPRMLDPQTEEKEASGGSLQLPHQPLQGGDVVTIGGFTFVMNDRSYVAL

[2] = molecular target: T2, his-tagged TSLPR (TSLPR-HIS) (UniProt Q9HC73 23-231, limits assumed); experiment: BLI (ForteBio AHQ sensor), antibody captured, TSLPR-HIS in solution
T2 construct: Soluble protein used in the ForteBio assay; not shown: His tag
T2 sequence (looked up): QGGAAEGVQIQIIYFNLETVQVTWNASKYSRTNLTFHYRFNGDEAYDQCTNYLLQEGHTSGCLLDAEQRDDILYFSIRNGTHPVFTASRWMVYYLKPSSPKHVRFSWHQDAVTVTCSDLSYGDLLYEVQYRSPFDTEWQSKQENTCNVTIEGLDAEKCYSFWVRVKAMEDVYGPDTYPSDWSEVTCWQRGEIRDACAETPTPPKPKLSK
Description: TSLPR antibody clones whose VH and VL sequences are disclosed in Tables 9 and 10 were bound to the AHQ sensor and his-tagged TSLPR (TSLPR-HIS) was provided in solution. […] The anti-TSLPR antibodies were serially diluted with an HBS-EP solution (GE Healthcare), and 100 μL of the solution was added to the flow path at a flow rate of […].

cynomolgus TSLPR = cynomolgus TSLPR (cynomolgus); experiment: SPR (BIAcore)
human TSLPR protein = molecular target: T3, human TSLPR protein (human, UniProt Q9HC73 23-231, limits assumed); experiment: SPR (BIAcore)
T3 sequence (looked up): T2 sequence (looked up)

- EC50 (Promega ADCC reporter assay, RLU) [1]: 0.03 nM
- Kd [2]: 4.45 nM
- koff [2]: 0.000769 s⁻¹
- kon [2]: 173000 M⁻¹ s⁻¹
B1: TSLPR antibody clone 1A9 (antibody, V domains shown)
VH: QVQLQESGPGLVKPSETLSLTCAVSGYSISSGYYWGWIRQPPGKGLEWIGRIYHSGTTSYNPSLKRRVTISVDTSKNQFSLKLSSVTATDTAVYYCARNWGGNWFDPWGQGTLVTVSS
VL: EIVLTQSPATLSLSPGERATLSCRASQSVSSYLAWYQQKPGQAPRLLIYDASNRATGIPARFSGSGSGTDFTLTISSLEPEDFAVYYCQQRSTWLTFGGGTKVDIKR
notes: also called TSLPR-4; TSLPR-004

- Kd (cynomolgus TSLPR): ~2.03 nM
- Kd (human TSLPR protein): ~2.87 nM
- EC50 (Promega ADCC reporter assay, RLU) [1]: 0.08 nM
- Kd [2]: 2.82 nM
- koff [2]: 0.00079 s⁻¹
- kon [2]: 280000 M⁻¹ s⁻¹
B2: TSLPR antibody clone 1B7 (antibody, V domains shown)
VH: QVQLQESGPGLVKPSGTLSLTCAVSGGSISSSNWWSWVRQPPGKGLEWIGEIYHGGTTNNNPSLKSRVTISVDKSKSQFSLKLSSVTAADTAVYYCARHRYSNGLDYWGQGTLVTVSS
VL: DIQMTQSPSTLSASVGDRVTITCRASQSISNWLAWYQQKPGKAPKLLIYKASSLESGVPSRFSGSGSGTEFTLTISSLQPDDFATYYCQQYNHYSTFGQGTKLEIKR
notes: also called TSLPR-6; TSLPR-006
